In article PMC7188906:

B1: human ACKR4-EYFP [human] / fluorescently labeled human CCL19^Dy649P1 [modified: Dy649P1 (as CoA conjugate) attached site-specifically to the S6-tag by the phosphopantetheinyl transferase Sfp; Dy649P1 (as CoA conjugate) … (parent)
chain 1: GTNDAEDCCLSVTQKPIPGYIVRNFHYLLIKDGCRVPAVVFTTLRGRQLCAPPDQPWVERIIQRLQRTSAKMKRRSS
chain 2: MALEQNQSTDYYYEENEMNGTYDYSQYELICIKEDVREFAKVFLPVFLTIVFVIGLAGNSMVVAIYAYYKKQRTKTDVYILNLAVADLLLLFTLPFWAVNAVHGWVLGKIMCKITSALYTLNFVSGMQFLACISIDRYVAVTKVPSQSGVGKPCWIICFCVWMAAILLSIPQLVFYTVNDNARCIPIFPRYLGTSMKALIQMLEICIGFVVPFLIMGVCYFITARTLMKMPNIKISRPLKVLLTVVIVFIVTQLPYNIVKFCRAIDIIYSLITSCNMSKRMDIAIQVTESIALFHSCLNPILYVFMGASFKNYVMKVAKKYGSWRRQRQSVEEFPFDSEGPTEPTSTFSI

Variants of: B1
Test: flow cytometry on cells
Details: with fluorescently labeled human CCL19^Dy649P1 [modified: Dy649P1 (as CoA conjugate) attached site-specifically to the S6-tag by the phosphopantetheinyl transferase; 25 nM CCL19Dy649P1 at 8°C; HeLa cells; read off a plot

Row | percent of parent | Variant
1 | 83 % of wt | chain 2 MALEQNQSTDYYYEENEMNGTYDYSQYELICIKEDVREFAKVFLPVFLTIVFVIGLAGNSMVVAIYAYYKKQRTKTDVYILNLAVADLLLLFTLPFWAVNAVHGWVLGKIMCKITSALYTLNFVSGMQFLACISIDRYVAVTKVPSQSGVGKPCWIICFCVWMAAILLSIPQLVFYTVNDNARCIPIFPRYLGTSMKALIQMLEICIGFVVPFLIMGVCYFITARALMKMPNIKISRPLKVLLTVVIVFIVTQLPYNIVKFCRAIDIIYSLITSCNMSKRMDIAIQVTESIALFHSCLNPILYVFMGASFKNYVMKVAKKYGSWRRQRQSVEEFPFDSEGPTEPTSTFSI [chain 2 T226A]
2 | 93 % of wt | chain 2 MALEQNQSTDYYYEENEMNGTYDYSQYELICIKEDVREFAKVFLPVFLTIVFVIGLAGNSMVVAIYAFYKKQRTKTDVYILNLAVADLLLLFTLPFWAVNAVHGWVLGKIMCKITSALYTLNFVSGMQFLACISIDRYVAVTKVPSQSGVGKPCWIICFCVWMAAILLSIPQLVFYTVNDNARCIPIFPRYLGTSMKALIQMLEICIGFVVPFLIMGVCYFITARTLMKMPNIKISRPLKVLLTVVIVFIVTQLPYNIVKFCRAIDIIYSLITSCNMSKRMDIAIQVTESIALFHSCLNPILYVFMGASFKNYVMKVAKKYGSWRRQRQSVEEFPFDSEGPTEPTSTFSI [chain 2 Y68F]
3 | 72 % of wt | chain 2 MALEQNQSTDYYYEENEMNGTYDYSQYELICIKEDVREFAKVFLPVFLTIVFVIGLAGNSMVVAIYAYYKKQRTKTDVYILNLAVADLLLLFTLPFWAVNAVHGWVLGKIMCKITSALYTLNFVSGMQFLACISIDRFVAVTKVPSQSGVGKPCWIICFCVWMAAILLSIPQLVFYTVNDNARCIPIFPRYLGTSMKALIQMLEICIGFVVPFLIMGVCYFITARTLMKMPNIKISRPLKVLLTVVIVFIVTQLPYNIVKFCRAIDIIYSLITSCNMSKRMDIAIQVTESIALFHSCLNPILYVFMGASFKNYVMKVAKKYGSWRRQRQSVEEFPFDSEGPTEPTSTFSI [chain 2 Y138F]
4 | 110 % of wt | chain 2 MALEQNQSTDYYYEENEMNGTYDYSQYELICIKEDVREFAKVFLPVFLTIVFVIGLAGNSMVVAIYAYYKKQRTKTDVFILNLAVADLLLLFTLPFWAVNAVHGWVLGKIMCKITSALYTLNFVSGMQFLACISIDRYVAVTKVPSQSGVGKPCWIICFCVWMAAILLSIPQLVFYTVNDNARCIPIFPRYLGTSMKALIQMLEICIGFVVPFLIMGVCYFITARTLMKMPNIKISRPLKVLLTVVIVFIVTQLPYNIVKFCRAIDIIYSLITSCNMSKRMDIAIQVTESIALFHSCLNPILYVFMGASFKNYVMKVAKKYGSWRRQRQSVEEFPFDSEGPTEPTSTFSI [chain 2 Y79F]

More lines, now with the values behind:

Row | Variant | percent of parent
5 | chain 2 MALEQNQSTDYYYEENEMNGTYDYSQYELICIKEDVREFAKVFLPVFLTIVFVIGLAGNSMVVAIYAYYKKQRTKTDVYILNLAVADLLLLFTLPFWAVNAVHGWVLGKIMCKITSALYTLNFVSGMQFLACISIDRYVAVTKVPSQSGVGKPCWIICFCVWMAAILLSIPQLVFYTVNDNARCIPIFPRYLGTSMKALIQMLEICIGFVVPFLIMGVCYFITARTLMKMPNIKISRPLKVLLTVVIVFIVTQLPYNIVKFCRAIDIIYSLITSCNMSKRMDIAIQVTESIALFHSCLNPILYVFMGASFKNYVMKVAKKYGSWRRQRQAVEEFPFDSEGPTEPTSTFSI [chain 2 S330A] | 83 % of wt
6 | chain 2 MALEQNQSTDYYYEENEMNGTYDYSQYELICIKEDVREFAKVFLPVFLTIVFVIGLAGNSMVVAIYAYYKKQRTKTDVYILNLAVADLLLLFTLPFWAVNAVHGWVLGKIMCKITSALYTLNFVSGMQFLACISIDRYVAVTKVPSQSGVGKPCWIICFCVWMAAILLSIPQLVFYTVNDNARCIPIFPRYLGTSMKALIQMLEICIGFVVPFLIMGVCYFITARTLMKMPNIKISRPLKVLLTVVIVFIVTQLPYNIVKFCRAIDIIYSLITSCNMSKRMDIAIQVTESIALFHSCLNPILYVFMGAAFKNYVMKVAKKYGAWRRQRQAVEEFPFDSEGPTEPTSTFSI [chain 2 S309A S323A S330A] | 120 % of wt
7 | chain 2 MALEQNQSTDYYYEENEMNGTYDYSQYELICIKEDVREFAKVFLPVFLTIVFVIGLAGNSMVVAIYAYYKKQRTKTDVYILNLAVADLLLLFTLPFWAVNAVHGWVLGKIMCKITSALYTLNFVSGMQFLACISIDRYVAVAKVPSQSGVGKPCWIICFCVWMAAILLSIPQLVFYTVNDNARCIPIFPRYLGTSMKALIQMLEICIGFVVPFLIMGVCYFITARTLMKMPNIKISRPLKVLLTVVIVFIVTQLPYNIVKFCRAIDIIYSLITSCNMSKRMDIAIQVTESIALFHSCLNPILYVFMGASFKNYVMKVAKKYGSWRRQRQSVEEFPFDSEGPTEPTSTFSI [chain 2 T142A] | 90 % of wt
8 | chain 2 MALEQNQSTDYYYEENEMNGTYDYSQYELICIKEDVREFAKVFLPVFLTIVFVIGLAGNSMVVAIYAYYKKQRTKTDVYILNLAVADLLLLFTLPFWAVNAVHGWVLGKIMCKITSALYTLNFVSGMQFLACISIDRYVAVTKVPSQSGVGKPCWIICFCVWMAAILLSIPQLVFYTVNDNARCIPIFPRYLGTSMKALIQMLEICIGFVVPFLIMGVCYFITARTLMKMPNIKISRPLKVLLTVVIVFIVTQLPYNIVKFCRAIDIIYSLITSCNMSKRMDIAIQVTESIALFHSCLNPILYVFMGAAFKNYVMKVAKKYGSWRRQRQSVEEFPFDSEGPTEPTSTFSI [chain 2 S309A] | 110 % of wt
9 | chain 2 MALEQNQSTDYYYEENEMNGTYDYSQYELICIKEDVREFAKVFLPVFLTIVFVIGLAGNSMVVAIYAYYKKQRTKTDVYILNLAVADLLLLFTLPFWAVNAVHGWVLGKIMCKITSALYTLNFVSGMQFLACISIDRYVAVTKVPSQSGVGKPCWIICFCVWMAAILLSIPQLVFYTVNDNARCIPIFPRYLGTSMKALIQMLEICIGFVVPFLIMGVCYFITARTLMKMPNIKISRPLKVLLTVVIVFIVTQLPYNIVKFCRAIDIIYSLITSCNMSKRMDIAIQVTESIALFHSCLNPILYVFMGASFKNYVMKVAKKYGAWRRQRQSVEEFPFDSEGPTEPTSTFSI [chain 2 S323A] | 87 % of wt
10 | chain 2 MALEQNQSTDYYYEENEMNGTYDYSQYELICIKEDVREFAKVFLPVFLTIVFVIGLAGNSMVVAIYAYYKKQRTKTDVYILNLAVADLLLLFTLPFWAVNAVHGWVLGKIMCKITSALYTLNFVSGMQFLACISIDRYVAVTKVPAQSGVGKPCWIICFCVWMAAILLSIPQLVFYTVNDNARCIPIFPRYLGTSMKALIQMLEICIGFVVPFLIMGVCYFITARTLMKMPNIKISRPLKVLLTVVIVFIVTQLPYNIVKFCRAIDIIYSLITSCNMSKRMDIAIQVTESIALFHSCLNPILYVFMGASFKNYVMKVAKKYGSWRRQRQSVEEFPFDSEGPTEPTSTFSI [chain 2 S146A] | 85 % of wt
11 | chain 2 MALEQNQSTDYYYEENEMNGTYDYSQYELICIKEDVREFAKVFLPVFLTIVFVIGLAGNSMVVAIYAYYKKQRTKTDVYILNLAVADLLLLFTLPFWAVNAVHGWVLGKIMCKITSALYTLNFVSGMQFLACISIDRYVAVAKVPSQSGVGKPCWIICFCVWMAAILLSIPQLVFYTVNDNARCIPIFPRYLGTSMKALIQMLEICIGFVVPFLIMGVCYFITARALMKMPNIKISRPLKVLLTVVIVFIVTQLPYNIVKFCRAIDIIYSLITSCNMSKRMDIAIQVTESIALFHSCLNPILYVFMGASFKNYVMKVAKKYGSWRRQRQSVEEFPFDSEGPTEPTSTFSI [chain 2 T142A T226A] | 90 % of wt
12 | chain 2 MALEQNQSTDYYYEENEMNGTYDYSQYELICIKEDVREFAKVFLPVFLTIVFVIGLAGNSMVVAIYAYYKKQRTKTDVYILNLAVADLLLLFTLPFWAVNAVHGWVLGKIMCKITSALYTLNFVSGMQFLACISIDRYVAVTKVPSQAGVGKPCWIICFCVWMAAILLSIPQLVFYTVNDNARCIPIFPRYLGTSMKALIQMLEICIGFVVPFLIMGVCYFITARTLMKMPNIKISRPLKVLLTVVIVFIVTQLPYNIVKFCRAIDIIYSLITSCNMSKRMDIAIQVTESIALFHSCLNPILYVFMGASFKNYVMKVAKKYGSWRRQRQSVEEFPFDSEGPTEPTSTFSI [chain 2 S148A] | 85 % of wt
13 | chain 2 MALEQNQSTDYYYEENEMNGTYDYSQYELICIKEDVREFAKVFLPVFLTIVFVIGLAGNSMVVAIYAYYKKQRTKTDVYILNLAVADLLLLFTLPFWAVNAVHGWVLGKIMCKITSALYTLNFVSGMQFLACISIDRYVAVAKVPSQSGVGKPCWIICFCVWMAAILLSIPQLVFYTVNDNARCIPIFPRYLGTSMKALIQMLEICIGFVVPFLIMGVCYFITARALMKMPNIKISRPLKVLLTVVIVFIVTQLPYNIVKFCRAIDIIYSLITSCNMSKRMDIAIQVTESIALFHSCLNPILYVFMGAAFKNYVMKVAKKYGAWRRQRQAVEEFPFDSEGPTEPTSTFSI [chain 2 T142A T226A S309A S323A S330A] | 110 % of wt
14 | chain 2 MALEQNQSTDYYYEENEMNGTYDYSQYELICIKEDVREFAKVFLPVFLTIVFVIGLAGNSMVVAIYAYYKKQRTKTDVYILNLAVADLLLLFTLPFWAVNAVHGWVLGKIMCKITSALYTLNFVSGMQFLACISIDRYVAVTKVPSQSGVGKPCWIICFCVWMAAILLSIPQLVFYTVNDNARCIPIFPRYLGTSMKALIQMLEICIGFVVPFLIMGVCYFITARTLMKMPNIKIARPLKVLLTVVIVFIVTQLPYNIVKFCRAIDIIYSLITSCNMSKRMDIAIQVTESIALFHSCLNPILYVFMGASFKNYVMKVAKKYGSWRRQRQSVEEFPFDSEGPTEPTSTFSI [chain 2 S236A] | 90 % of wt
